Reference: paper PMC5902578

Assays:
[1] = target: yeast Hsp90 W300E (S. cerevisiae) (UniProt P02829); test: AUC; as a1, with 2 mM AMP–PNP
[2] = target: yeast Hsp90 W300A (S. cerevisiae) (UniProt P02829); test: AUC; as a1, with 2 mM AMP–PNP
[3] = target: yeast Hsp90 W300E (S. cerevisiae) (UniProt P02829); test: AUC; as a1, with 2 mM ATPγS
[4] = target: yeast Hsp90 W300A (S. cerevisiae) (UniProt P02829); test: AUC; as a1, with 2 mM ATPγS

Measured: percent of labelled GR-LBD in complex

human glucocorticoid receptor ligand binding domain (GR-LBD) (domain or fragment)
< 5%: all assays above
